Results on six substances are retold here after paper PMC8591539.

In assay [1] the target is CRL4^DCAF1 (FL)-VPR-UNG2 complex (human | HIV-1 | not stated) (UniProt Q13619). In words: SEC-MALS. A general note: Size exclusion chromatography separates by hydrodynamic size, large species first.
Assay [2] concerns the target CRL4^DCAF1 (FL) (R1247A) mutant (human) (UniProt Q13619). In words: SEC-MALS.
Assay [3] addresses DDB1-DCAF1 (FL) sub-complex (human) (UniProt Q16531). The assay can be described thus: SEC-MALS.
Assay [4] has as its target CRL4^DCAF1 (FL) (CUL4A-RBX1-DDB1-DCAF1), unneddylated (human) (UniProt Q13619). The assay can be described thus: cryo-EM structure.
For assay [5] the target is unchanged. The assay can be described thus: SEC-MALS.
Assay [6] has as its target CRL4^DCAF1(FL)-MERLIN complex (UniProt Q13619). The assay can be described thus: SEC-MALS.
The target in assay [7] is CRL4^DCAF1 (FL)-VPR complex (human | HIV-1) (UniProt Q13619). In words: SEC-MALS.

Chain of CRL4^DCAF1 (FL) (CUL4A-RBX1-DDB1-DCAF1), unneddylated (Q13619 whole entry): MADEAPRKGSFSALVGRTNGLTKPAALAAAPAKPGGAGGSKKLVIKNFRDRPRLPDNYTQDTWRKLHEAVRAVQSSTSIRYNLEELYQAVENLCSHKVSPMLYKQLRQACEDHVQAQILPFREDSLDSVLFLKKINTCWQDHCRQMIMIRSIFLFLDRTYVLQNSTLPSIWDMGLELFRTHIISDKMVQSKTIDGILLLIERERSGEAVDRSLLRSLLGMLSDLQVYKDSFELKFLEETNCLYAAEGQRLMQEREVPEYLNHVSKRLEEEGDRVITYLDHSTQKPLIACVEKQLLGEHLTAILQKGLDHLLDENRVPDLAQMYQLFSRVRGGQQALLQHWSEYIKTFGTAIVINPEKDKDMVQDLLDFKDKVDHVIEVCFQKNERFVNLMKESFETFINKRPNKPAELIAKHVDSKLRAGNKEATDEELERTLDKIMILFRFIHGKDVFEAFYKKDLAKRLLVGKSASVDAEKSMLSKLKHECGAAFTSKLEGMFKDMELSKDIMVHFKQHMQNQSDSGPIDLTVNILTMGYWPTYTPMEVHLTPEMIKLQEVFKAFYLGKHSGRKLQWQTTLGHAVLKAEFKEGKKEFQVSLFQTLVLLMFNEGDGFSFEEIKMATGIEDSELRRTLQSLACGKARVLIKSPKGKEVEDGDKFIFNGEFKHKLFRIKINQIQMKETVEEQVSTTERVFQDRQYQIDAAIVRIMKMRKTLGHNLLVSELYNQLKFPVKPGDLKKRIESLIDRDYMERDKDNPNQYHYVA
Chain of CRL4^DCAF1 (FL) (CUL4A-RBX1-DDB1-DCAF1), unneddylated (P62877 whole entry): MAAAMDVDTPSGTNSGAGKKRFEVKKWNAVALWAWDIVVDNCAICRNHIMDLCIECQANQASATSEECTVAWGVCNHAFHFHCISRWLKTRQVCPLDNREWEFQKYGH
Chain of CRL4^DCAF1 (FL) (CUL4A-RBX1-DDB1-DCAF1), unneddylated (Q16531 whole entry): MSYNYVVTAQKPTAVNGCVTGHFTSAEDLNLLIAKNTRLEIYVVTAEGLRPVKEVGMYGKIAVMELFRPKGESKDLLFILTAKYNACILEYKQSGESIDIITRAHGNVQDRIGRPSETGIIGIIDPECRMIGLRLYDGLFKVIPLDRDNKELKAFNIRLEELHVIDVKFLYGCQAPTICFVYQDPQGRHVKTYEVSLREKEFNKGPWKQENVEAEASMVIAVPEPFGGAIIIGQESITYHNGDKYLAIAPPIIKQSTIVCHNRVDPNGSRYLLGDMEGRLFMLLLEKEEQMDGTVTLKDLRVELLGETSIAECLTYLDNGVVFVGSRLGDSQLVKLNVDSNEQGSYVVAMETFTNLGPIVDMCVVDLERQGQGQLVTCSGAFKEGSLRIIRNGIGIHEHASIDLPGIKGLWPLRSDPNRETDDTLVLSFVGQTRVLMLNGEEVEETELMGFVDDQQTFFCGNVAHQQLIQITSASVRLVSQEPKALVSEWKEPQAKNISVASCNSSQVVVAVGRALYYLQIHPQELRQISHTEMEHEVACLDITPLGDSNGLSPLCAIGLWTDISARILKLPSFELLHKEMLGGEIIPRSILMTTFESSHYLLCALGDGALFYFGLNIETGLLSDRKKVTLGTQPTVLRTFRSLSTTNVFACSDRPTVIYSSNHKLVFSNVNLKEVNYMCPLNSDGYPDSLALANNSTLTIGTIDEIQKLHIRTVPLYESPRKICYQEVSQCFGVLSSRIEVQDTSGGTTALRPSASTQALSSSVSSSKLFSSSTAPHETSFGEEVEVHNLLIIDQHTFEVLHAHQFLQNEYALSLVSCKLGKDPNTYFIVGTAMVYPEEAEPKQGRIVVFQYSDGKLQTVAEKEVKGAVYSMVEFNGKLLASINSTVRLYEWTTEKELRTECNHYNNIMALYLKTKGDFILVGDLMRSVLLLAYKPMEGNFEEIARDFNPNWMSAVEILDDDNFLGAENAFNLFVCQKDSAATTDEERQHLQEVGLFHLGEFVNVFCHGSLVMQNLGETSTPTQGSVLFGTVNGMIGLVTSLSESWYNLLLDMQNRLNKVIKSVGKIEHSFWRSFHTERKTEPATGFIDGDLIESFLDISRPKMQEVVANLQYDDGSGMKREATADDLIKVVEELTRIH
Chain of CRL4^DCAF1 (FL) (CUL4A-RBX1-DDB1-DCAF1), unneddylated (Q9Y4B6 whole entry): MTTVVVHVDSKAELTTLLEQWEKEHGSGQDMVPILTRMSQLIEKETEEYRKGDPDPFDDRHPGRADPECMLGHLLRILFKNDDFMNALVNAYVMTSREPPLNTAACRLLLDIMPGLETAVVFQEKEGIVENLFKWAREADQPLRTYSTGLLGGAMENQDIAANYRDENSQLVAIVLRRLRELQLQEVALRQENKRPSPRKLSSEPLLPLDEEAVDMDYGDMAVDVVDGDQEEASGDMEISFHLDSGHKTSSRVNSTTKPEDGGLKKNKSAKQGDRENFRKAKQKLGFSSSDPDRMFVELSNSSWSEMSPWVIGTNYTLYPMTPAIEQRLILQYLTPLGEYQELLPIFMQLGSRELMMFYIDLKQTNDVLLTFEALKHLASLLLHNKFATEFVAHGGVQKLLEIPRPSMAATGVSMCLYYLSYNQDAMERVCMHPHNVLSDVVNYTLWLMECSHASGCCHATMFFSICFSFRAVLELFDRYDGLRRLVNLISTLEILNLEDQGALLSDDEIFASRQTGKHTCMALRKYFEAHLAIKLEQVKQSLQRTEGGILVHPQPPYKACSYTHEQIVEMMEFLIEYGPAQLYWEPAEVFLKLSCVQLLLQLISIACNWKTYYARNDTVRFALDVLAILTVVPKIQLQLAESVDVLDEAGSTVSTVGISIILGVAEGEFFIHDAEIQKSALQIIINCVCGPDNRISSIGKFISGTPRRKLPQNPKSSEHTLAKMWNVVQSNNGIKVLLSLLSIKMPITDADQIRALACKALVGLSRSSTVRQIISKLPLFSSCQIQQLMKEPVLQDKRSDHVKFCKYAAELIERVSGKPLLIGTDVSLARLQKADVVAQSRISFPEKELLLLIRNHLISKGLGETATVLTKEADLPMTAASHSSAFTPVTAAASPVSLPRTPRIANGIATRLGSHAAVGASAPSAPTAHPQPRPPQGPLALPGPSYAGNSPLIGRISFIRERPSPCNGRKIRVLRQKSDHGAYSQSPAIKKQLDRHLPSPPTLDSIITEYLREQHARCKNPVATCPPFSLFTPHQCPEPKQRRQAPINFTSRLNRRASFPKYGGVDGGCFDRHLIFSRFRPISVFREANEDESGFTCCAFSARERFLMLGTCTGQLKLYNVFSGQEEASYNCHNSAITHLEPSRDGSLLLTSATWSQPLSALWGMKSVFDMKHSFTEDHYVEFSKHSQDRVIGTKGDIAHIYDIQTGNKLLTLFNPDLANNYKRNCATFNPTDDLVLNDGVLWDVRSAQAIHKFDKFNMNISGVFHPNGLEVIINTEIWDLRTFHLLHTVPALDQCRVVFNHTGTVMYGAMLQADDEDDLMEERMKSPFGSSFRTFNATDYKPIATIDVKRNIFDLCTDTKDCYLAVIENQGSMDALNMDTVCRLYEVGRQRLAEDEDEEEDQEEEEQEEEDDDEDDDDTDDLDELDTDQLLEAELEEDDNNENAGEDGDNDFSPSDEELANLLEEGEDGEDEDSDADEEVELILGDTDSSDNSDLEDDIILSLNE

In the case of “CRL4^DCAF1 (FL)-VPR-UNG2 complex (from UniProt Q13619;P62877;Q16531;Q9Y4B6;P12520;P13051-1)”, the stoichiometry N in assay [1] stood at 2.

Take “CRL4^DCAF1 (FL) (R1247A) mutant (from UniProt Q13619;P62877;Q16531;Q9Y4B6) (complex)”: the stoichiometry N in assay [2] is 2.

In assay [3], “DDB1-DCAF1 (FL) sub-complex (from UniProt Q16531;Q9Y4B6)” returned a stoichiometry N of 2.

Regarding “CRL4^DCAF1 (FL) (CUL4A-RBX1-DDB1-DCAF1), unneddylated (from UniProt Q13619;P62877;Q16531;Q9Y4B6) (complex)”, the stoichiometry N in assay [4] and in assay [5] was 4 throughout.

“CRL4^DCAF1(FL)-MERLIN complex (from UniProt Q13619;P62877;Q16531;Q9Y4B6;P35240)” registered a stoichiometry N in assay [6] of 4.

As for “CRL4^DCAF1 (FL)-VPR complex (from UniProt Q13619;P62877;Q16531;Q9Y4B6;P12520)”, in assay [7], the stoichiometry N came to 4.

As a reminder, the stoichiometry N is the number of molecules, sites or subunits per partner or assembly.
